Experimental data reported in PMC2989460.

Target: anaphase-promoting complex/cyclosome (APC/C), human (human (endogenous in HeLa)) (UniProt Q9H1A4)
Experiment: cryo-EM structure

Chain of UniProt Q9H1A4 (Q9H1A4 whole entry, looked up, one chain of several): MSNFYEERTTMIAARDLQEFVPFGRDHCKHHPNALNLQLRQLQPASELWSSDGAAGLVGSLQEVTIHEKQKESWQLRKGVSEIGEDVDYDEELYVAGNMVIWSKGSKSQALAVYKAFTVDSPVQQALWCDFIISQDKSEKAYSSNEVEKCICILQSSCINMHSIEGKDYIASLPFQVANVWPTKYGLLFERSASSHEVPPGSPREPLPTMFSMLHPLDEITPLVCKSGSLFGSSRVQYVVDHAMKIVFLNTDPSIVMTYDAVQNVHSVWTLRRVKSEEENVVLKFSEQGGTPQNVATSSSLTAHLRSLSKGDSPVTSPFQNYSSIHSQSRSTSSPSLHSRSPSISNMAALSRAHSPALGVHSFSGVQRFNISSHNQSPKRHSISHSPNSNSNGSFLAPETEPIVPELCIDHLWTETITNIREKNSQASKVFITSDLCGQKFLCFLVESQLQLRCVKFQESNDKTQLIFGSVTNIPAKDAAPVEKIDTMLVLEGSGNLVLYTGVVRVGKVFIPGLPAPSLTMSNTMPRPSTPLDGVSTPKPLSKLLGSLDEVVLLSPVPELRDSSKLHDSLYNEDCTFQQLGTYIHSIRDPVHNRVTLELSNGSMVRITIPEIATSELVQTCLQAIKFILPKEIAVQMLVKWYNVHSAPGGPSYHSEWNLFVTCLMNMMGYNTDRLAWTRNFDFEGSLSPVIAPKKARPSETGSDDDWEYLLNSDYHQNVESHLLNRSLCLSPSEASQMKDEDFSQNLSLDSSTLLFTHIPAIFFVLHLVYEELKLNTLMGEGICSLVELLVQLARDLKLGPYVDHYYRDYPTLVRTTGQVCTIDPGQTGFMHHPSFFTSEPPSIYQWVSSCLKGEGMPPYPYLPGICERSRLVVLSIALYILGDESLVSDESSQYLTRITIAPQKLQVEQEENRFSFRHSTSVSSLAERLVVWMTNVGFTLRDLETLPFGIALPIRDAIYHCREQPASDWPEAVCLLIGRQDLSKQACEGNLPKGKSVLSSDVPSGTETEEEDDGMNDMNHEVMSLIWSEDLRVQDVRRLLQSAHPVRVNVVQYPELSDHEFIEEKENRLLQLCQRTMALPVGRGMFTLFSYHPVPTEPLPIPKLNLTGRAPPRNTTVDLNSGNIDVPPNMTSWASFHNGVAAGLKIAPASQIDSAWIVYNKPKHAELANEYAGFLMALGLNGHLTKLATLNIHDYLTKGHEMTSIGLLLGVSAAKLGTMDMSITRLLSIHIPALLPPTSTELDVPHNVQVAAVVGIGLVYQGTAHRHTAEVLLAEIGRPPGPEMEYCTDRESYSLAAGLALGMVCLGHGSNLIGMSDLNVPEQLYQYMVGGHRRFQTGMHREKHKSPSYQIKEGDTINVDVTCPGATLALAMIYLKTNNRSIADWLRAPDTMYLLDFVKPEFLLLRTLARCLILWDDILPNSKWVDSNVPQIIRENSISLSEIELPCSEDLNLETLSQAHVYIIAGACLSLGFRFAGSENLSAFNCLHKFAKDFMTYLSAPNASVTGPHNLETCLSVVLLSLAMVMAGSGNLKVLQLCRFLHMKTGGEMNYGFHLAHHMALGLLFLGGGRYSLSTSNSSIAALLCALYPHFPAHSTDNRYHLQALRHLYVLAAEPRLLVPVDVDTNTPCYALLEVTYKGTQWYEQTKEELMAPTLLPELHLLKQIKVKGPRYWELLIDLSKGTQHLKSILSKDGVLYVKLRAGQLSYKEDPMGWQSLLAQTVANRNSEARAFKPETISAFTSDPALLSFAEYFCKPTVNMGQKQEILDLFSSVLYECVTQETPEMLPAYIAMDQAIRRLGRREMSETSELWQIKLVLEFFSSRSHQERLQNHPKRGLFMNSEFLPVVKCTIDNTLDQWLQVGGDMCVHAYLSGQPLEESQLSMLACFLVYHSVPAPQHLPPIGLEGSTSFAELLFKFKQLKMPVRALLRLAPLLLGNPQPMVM

percent of APC/C molecules with the additional Cdc20 mass: 30%
Substance: recombinant Cdc20 (from UniProt Q12834 1-499) (natural protein)
